The values below come from US20050226881A1 (LUDWIG INSTITUTE FOR CANCER RESEARCH, published 2005).

This assay concerns the target HLA-Cw*0701 (human). Description: cell-based or functional assay.

For EGDCAPEEK [peptide (D), EGDCAPEEK (amino acids 2-10 of SEQ ID NO: 2)], the “percent lysis (51Cr release) of autologous EBV-B cells loaded with 1 nM peptide, effector/target ratio 5:1” value was about 34%.
